# Assay results from IntAct's records for PubMed 21098279.
# B1: "Secreted effector protein EspF(U)" (Escherichia coli O157:H7), P0DJ88 (parent)
# chain: MINNVSSLFPTVNRNITAVYKKSSFSVSPQKITLNPVKISSPFSPSSSSISATTLFRAPNAHSASFHRQSTAESSLHQQLPNVRQRLIQHLAEHGIKPARSMAEHIPPAPNWPAPPPPVQNEQSRPLPDVAQRLVQHLAEHGIQPARNMAEHIPPAPNWPAPPLPVQNEQSRPLPDVAQRLVQHLAEHGIQPARSMAEHIPPAPNWPAPPPPVQNEQSRPLPDVAQRLMQHLAEHGIQPARNMAEHIPPAPNWPAPTPPVQNEQSRPLPDVAQRLMQHLAEHGIQPARNMAEHIPPAPNWPAPTPPVQNEQSRPLPDVAQRLMQHLAEHGINTSKRS
# partner: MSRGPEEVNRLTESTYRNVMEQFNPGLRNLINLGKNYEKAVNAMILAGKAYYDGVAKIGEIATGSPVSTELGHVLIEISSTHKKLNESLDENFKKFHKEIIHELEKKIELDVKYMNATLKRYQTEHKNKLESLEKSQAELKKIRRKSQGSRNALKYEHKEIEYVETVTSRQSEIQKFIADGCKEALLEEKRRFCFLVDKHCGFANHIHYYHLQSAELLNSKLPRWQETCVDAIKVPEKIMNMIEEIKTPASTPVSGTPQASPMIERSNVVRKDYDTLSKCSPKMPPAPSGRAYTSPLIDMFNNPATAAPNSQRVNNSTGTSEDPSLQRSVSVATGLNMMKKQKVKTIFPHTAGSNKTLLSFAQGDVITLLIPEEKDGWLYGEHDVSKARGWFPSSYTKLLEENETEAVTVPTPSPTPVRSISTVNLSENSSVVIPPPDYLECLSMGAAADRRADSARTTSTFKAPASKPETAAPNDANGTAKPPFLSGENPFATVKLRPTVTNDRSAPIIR
# Variants of: B1
# Details: with bi2l1_human BAIAP2L1, Q9UHR4
row,Variant,effect of a mutation on the interaction
1,N299A;W300A;P301A,decreasing interaction
2,N299G;W300G;P301G,decreasing interaction
3,N299P;W300P,decreasing interaction
